Measured values: patent publication US10208288B2, “Differentiation of human embryonic stem cells into pancreatic endocrine cells” (Janssen Biotech, Inc., priority 2012, dated 2019)

Test system: cells of the human embryonic stem cell line H1 differentiated to stage 5
Test: Real-time PCR of pancreatic endoderm/endocrine genes after factors spiked into stage 5 media
Assay type: cell-based
Protocol: Cells of the human embryonic stem cell line H1 (hESC H1, passage 40) were seeded as single cells at 1×10^5 cells/cm^2 on MATRIGEL™ (1:30 dilution; BD Biosciences, NJ)-coated dishes in mTeSR®1 media (StemCell Technologies, Vancouver, Canada) supplemented with 10 μM of Y27632 (Rock inhibitor, Catalog No. Y0503, SigmaAldrich, St. Louis, Mo.). Forty-eight hours post seeding, cultures were washed in incomplete PBS (phosphate buffered saline without Mg or Ca). Cultures were differentiated into pancreatic endoderm/endocrine lineages as follows: • a) Stage 1 (Definitive Endoderm (DE)—3 days): Cells were cultured for one day in stage 1 media: MCDB-131 medium (Catalog No. 10372-019, Invitrogen, Carlsbad, Calif.) supplemented with 0.1% fatty acid-free BSA (Catalog No. 68700, Proliant, Ankeny, Iowa), 0.0012 g/ml sodium bicarbonate (Catalog No. S3187, SigmaAldrich, St. Louis, Mo.), 1× GlutaMax™ (Invitrogen Catalog No. 35050-079), 4.5 mM D-Glucose (SigmaAldrich Catalog No. G8769), 100 ng/ml GDF8 (R&D Systems, Minneapolis, Minn.) and 1 μM MCX compound (a GSK3B inhibitor, 14-Prop-2-en-1-yl-3,5,7,14,17,23,27-heptaazatetracyclo [19.3.1.1˜2,6˜0.1˜8,12˜]heptacosa-1(25),2(27),3,5,8(26),9,11,21,23-nonaen-16-one, US Patent Application Publication No. 2010-0015711; incorporated herein by reference in its entirety). Cells were then cultured for additional day in MCDB-131 medium supplemented with 0.1% fatty acid-free BSA, 0.0012 g/ml sodium bicarbonate, 1× GlutaMax™, 4.5 mM D-Glucose, 100 ng/ml GDF8, and 0.1 μM MCX compound. Cells were then cultured for an additional day in MCDB-131 medium supplemented with 0.1% fatty acid-free BSA, 0.0012 g/ml sodium bicarbonate, 1× GlutaMax™, 4.5 mM D-Glucose, and 100 ng/ml GDF8, then • b) Stage 2 (Primitive gut tube—2 days): Cells were treated for two days with MCDB-131 medium supplemented with 0.1% fatty acid-free BSA; 0.0012 g/ml sodium bicarbonate; 1× GlutaMax™; 4.5 mM D-Glucose; 0.25 mM ascorbic acid (Sigma, St. Louis, Mo.) and 25 ng/ml FGF7 (R & D Systems, Minneapolis, Minn.), then • c) Stage 3 (Foregut—2 days): Cells were treated with MCDB-131 medium supplemented with a 1:200 dilution of ITS-X (Invitrogen); 4.5 mM Glucose; 1× GlutaMax™; 0.0017 g/ml sodium bicarbonate; 2% fatty acid-free BSA; 0.25 μM SANT-1 (Sigma, St. Louis, Mo.); 10 ng/ml of Activin-A (R & D Systems); 1 μM retinoic acid (RA; Sigma); 25 ng/ml FGF7; 0.25 mM ascorbic acid; 200 nM TPB (a PKC activator; Catalog No. 565740; EMD Chemicals, Gibstown, N.J.); 10 μM forskolin (FSK, Sigma), and 100 nM LDN (a BMP receptor inhibitor; Catalog No. 04-0019; Stemgent; San Diego, Calif.) for day 1. On day 2, cells were treated with MCDB-131 medium supplemented with a 1:200 dilution of ITS-X; 4.5 mM Glucose; 1× GlutaMax™; 0.0017 g/ml sodium bicarbonate; 2% fatty acid-free BSA; 0.25 μM SANT-1; 10 ng/ml of Activin A; 1 μM RA; 25 ng/ml FGF7; 0.25 mM ascorbic acid, 200 nM TPB, 10 μM forskolin and 10 nM LDN, then • d) Stage 4 (Pancreatic foregut precursor—2 days); Cells were treated with MCDB-131 medium supplemented with a 1:200 dilution of ITS-X; 4.5 mM Glucose; 1× GlutaMax™; 0.0015 g/ml sodium bicarbonate; 2% fatty acid-free BSA; 0.25 μM SANT-1; 50 nM RA; 50 nM LDN-193189; 10 μM forskolin; 0.25 mM ascorbic acid; and 100 nM TPB for two days, then • e) Stage 5 (Pancreatic endoderm/endocrine—3 days): Stage 4 cells were treated with MCDB-131 medium supplemented with a 1:200 dilution of ITS-X; 20 mM Glucose; 1× GlutaMax™; 0.0015 g/ml sodium bicarbonate; 2% fatty acid-free BSA; 0.25 μM SANT-1; 50 nM RA; 10 μM forskolin; 0.25 mM ascorbic acid for three days, with the addition of 100 nM ALk5 inhibitor SD-208 (disclosed in Molecular Pharmacology 2007, 72:152-161) for days 2-3 only.
At day 1 of stage 5, the factors listed in Table I, below, were spiked into the media and upon completion of S5 (day 3 of stage 5) mRNA was collected for PCR analysis of relevant pancreatic endoderm/endocrine genes. As a control, cultures were treated only with the S5 media listed above. […]

B1: Ephrin-A4: Ephrin ligand protein, R & D Systems catalogue number 369-EA (protein, UniProt P52798 26-170, looked up)
Ephrin-A4: LRHVVYWNSSNPRLLRGDAVVELGLNDYLDIVCPHYEGPGPPEGPETFALYMVDWPGYESCQAEGPRAYKRWVCSLPFGHVQFSEKIQRFTPFSLGFEFLPGETYYYISVPTPESSGQCLRLQVSVCCKERKSESAHPVGSPGES
Ephrin-A4 100 ng/ml at S5, mRNA at day 3 of S5, vs control, FIG. 1E
  PDX1 expression: minimal impact
Ephrin-A4 100 ng/ml at S5, mRNA at day 3 of S5, vs control, FIG. 1G
  NGN3 expression: minimal impact
Factor spiked at day 1 of stage 5, mRNA at day 3 of S5, vs control cultures, Table I: Ephrin-A4 100 ng/ml, Activin A and Activin C 20 ng/ml, FIG. 1A
  mRNA expression of insulin: enhanced
Factor spiked at day 1 of stage 5, mRNA at day 3 of S5, vs control cultures, Table I: Ephrin-A4 100 ng/ml, Semaphorin 3a 50 ng/ml, Epigen 20 ng/ml, FIG. 1F
  mRNA expression of NKX6.1: enhanced
